{
  "source": "paper doi:10.1101/2021.02.22.432209",
  "about": "(bioRxiv, 2021)",
  "binders": {"B1": {"name": "GST-PreScission-p62 FIR 4P (domain or fragment)", "chain": "MESDNCSGGDDDWTHLSSKEVDPETGELQSLQMPESEGPEELDPEQEGPTGLKEA"}, "B2": {"name": "GABARAP (1-117), His8-TEV-GABARAP (natural protein)", "chain": "MKFVYKEEHPFEKRRSEGEKIRKKYPDRVPVIVEKAPKARIGDLDKKKYLVPSDLTVGQFYFLIRKRIHLRAEDALFFFVNNVIPPTSATMGQLYQEHHEEDFFLYIAYSDESVYGL"}},
  "experiment_in_all_cases": "SPR",
  "key": {"[1]": {"target": "B2"}, "[2]": {"target": "LC3B (1-125), His8-TEV-LC3B (human, UniProt Q9GZQ8 1-120)"}, "[3]": {"target": "B2", "remark": "listed apart in the source"}, "[4]": {"target": "T1, Biotinylated FLCN-8xGlycine-AviTag/FNIP2 (human, UniProt Q8NFG4;Q9P278, biotin on the AviTag)"}, "[5]": {"target": "T1, Biotinylated FLCN-8xGlycine-AviTag/FNIP2", "remark": "listed apart in the source"}},
  "note": "Like-named read-outs stand apart in the source and are kept apart here.",
  "data": [
    {"binder": "B1", "values": [
      {"measurement": "Kd", "setting": "[1]", "value": "670 ± 80", "unit": "nM"},
      {"measurement": "Kd", "setting": "[2]", "value": "820 ± 40", "unit": "nM"}
    ]},
    {"binder": "EKGEVEESEYVVITVRNEP", "note": "[FNIP2 peptide 558-576, wild type (Short)]", "values": [
      {"measurement": "Kd", "setting": "[3]", "value": "6200 ± 3000", "unit": "nM"}
    ]},
    {"binder": "GSKIITALEKGEVEESEYVVITVRNEP", "note": "[FNIP2 peptide 550-576, wild type (Long)]", "values": [
      {"measurement": "Kd", "setting": "[3]", "value": "29 ± 2", "unit": "nM"}
    ]},
    {"binder": "B2", "values": [
      {"measurement": "Kd", "setting": "[4]", "value": "0.3 ± 0.018", "unit": "nM"},
      {"measurement": "Kd", "setting": "[5]", "value": "0.071 ± 0.01", "unit": "nM"}
    ]}
  ]
}
